Laboratory results published in patent US20060264369, “Aptamers to von Willebrand Factor and their use as thrombotic disease therapeutics” (published 2006).

Experiments:
[1] = target: von Willebrand factor A1 domain (Homo sapiens, UniProt P04275 SEQ:13-246); assay: filter; no binding; details: label: 5'-32P
[2] = target: T1, von Willebrand factor full length (Homo sapiens, UniProt P04275 SEQ:764-2813); assay: filter; no binding; details: tags: Calbiochem 681300; label: 5'-32P
[3] = target: T1, von Willebrand factor full length; assay: filter; no binding; details: tags: Calbiochem 681300; label: 5'-32P; remark: listed apart in the source
Protocol: (§1) For KD determination, chemically synthesized aptamers were purified using denaturing polyacrylamide gel electrophoresis, 5′end labeled with γ-³²P ATP and were tested for direct binding to full length human vWF (Calbiochem Cat.# 681300, La Jolla, Calif.). An 8 point protein titration was used in the dot blot binding assay (100 nM, 30 nM, 10 nM, 3 nM, 1 nM, 300 pM, 100 pM, 0 pM)) in 1× Dulbecco's PBS containing […] (final volume of 50 uL) for 30 minutes at room temperature. KD values were calculated by fitting the equation y=(max/(1+K/protein))+yint using KaleidaGraph (KaleidaGraph v. 3.51, Synergy Software).

[4] = target: T1, von Willebrand factor full length; assay: filter; DPBS, 0.1 mg/mL BSA, RT; details: tags: Calbiochem 681300; label: 5'-32P
Protocol: Minimers were tested for direct binding to full length human vWF (SEQ ID NO 7), and rabbit vWF A1 domain (SEQ ID NO 6) using a 9 point protein titration (100 nM, 30 nM, 10 nM, 3 nM, 1 nM, 300 pM, 100 pM, 30 pM, 0 pM) (see FIG. 6) in 1×Dulbecco's PBS containing 0.1 mg/mL BSA (final volume of 50 uL) for 30 minutes at room temperature and then applied to a nitrocellulose and nylon filter sandwich in a dot blot apparatus (Schleicher and Schuell, Keene, N.H.). KD values were calculated by fitting the equation y=(max/(1+K/protein))+yint using KaleidaGraph (KaleidaGraph v. 3.51, Synergy Software).

[5] = target: T1, von Willebrand factor full length; assay: filter; 21% bound at 100 nM vWF; details: tags: Calbiochem 681300; label: 5'-32P
Protocol: as §1

[6] = target: T1, von Willebrand factor full length; assay: filter; 46% bound at 100 nM vWF; details: tags: Calbiochem 681300; label: 5'-32P
Protocol: as §1

[7] = target: T1, von Willebrand factor full length; assay: cell_activity; IC90 BIPA in human platelet rich plasma
Protocol: In order to determine the activity of aptamers on live human platelets, BIPA assays were done using freshly prepared platelet rich plasma. Blood was obtained from healthy human donors who had not taken NSAIDS for at least five days. […] Collected blood was pooled into 15 mL conical tubes and was spun at 200 g for 20 minutes. The turbid, yellow layer of platelet rich plasma (“PRP”) was withdrawn from the tubes, pooled, and set aside at room temperature. The remaining blood was spun at 2500 g for ten minutes. The clarified layer of plasma, known as platelet poor plasma (“PPP”), was withdrawn and set aside at room temperature. PRP was aliquoted into cuvettes containing stir bars at a volume of 470 uL. A sample of 500 uL of PPP was aliquoted into a cuvette and placed in the PPP reference cell of the platelet aggregometer. Samples of PRP were prewamed at 37 degrees C. in the platelet aggregometer for 3-5 minutes before being used in BIPA assays. First, the concentration of botrocetin needed to induce platelet aggregation for each individual donor was determined by titration. This concentration of botrocetin was used for the remainder of the experiment. Next, aptamer was assayed by adding titrations of aptamer (zero, 1 nM to 1000 nM) to prewarmed PRP for one minute, followed by addition of botrocetin. With platelet aggregation, an increase in amplitude of light transmission is seen (FIG. 8). The concentration at which platelet aggregation is blocked at 90% or greater after 6 minutes is reported in the final column of Table 26.

[8] = target: T1, von Willebrand factor full length; assay: filter; 39% bound at 100 nM; details: tags: Calbiochem 681300
Protocol: as §1

[9] = target: T1, von Willebrand factor full length; assay: filter; 49% bound at 100 nM; details: tags: Calbiochem 681300
Protocol: as §1

[10] = target: T1, von Willebrand factor full length; assay: filter; 50% bound at 100 nM vWF; details: tags: Calbiochem 681300; label: 5'-32P
Protocol: as §1

[11] = target: T1, von Willebrand factor full length; assay: filter; 45% bound at 100 nM; details: tags: Calbiochem 681300
Protocol: as §1

[12] = target: T1, von Willebrand factor full length; assay: filter; 25% bound at 100 nM vWF; details: tags: Calbiochem 681300; label: 5'-32P
Protocol: as §1

[13] = target: T1, von Willebrand factor full length; assay: filter; 36% bound at 100 nM vWF; details: tags: Calbiochem 681300; label: 5'-32P
Protocol: as §1

[14] = target: T1, von Willebrand factor full length; assay: filter; 37% bound at 100 nM; details: tags: Calbiochem 681300
Protocol: as §1

[15] = target: T1, von Willebrand factor full length; assay: filter; 28% bound at 100 nM vWF; details: tags: Calbiochem 681300; label: 5'-32P
Protocol: as §1

[16] = target: T1, von Willebrand factor full length; assay: filter; 50% bound at 100 nM; details: tags: Calbiochem 681300
Protocol: as §1

[17] = target: T1, von Willebrand factor full length; assay: filter; 37% bound at 100 nM vWF; details: tags: Calbiochem 681300; label: 5'-32P
Protocol: as §1

[18] = target: T1, von Willebrand factor full length; assay: filter; only 6% bound at 100 nM vWF; details: tags: Calbiochem 681300; label: 5'-32P
Protocol: as §1

[19] = target: T1, von Willebrand factor full length; assay: filter; 25.6% bound at 100 nM vWF; details: tags: Calbiochem 681300; label: 5'-32P
Protocol: as §1

[20] = target: T1, von Willebrand factor full length; assay: filter; 48.3% bound at 100 nM vWF; details: tags: Calbiochem 681300; label: 5'-32P
Protocol: as §1

B1: DNA1 minimer SEQ 204 (ssDNA)
DNA: CCAGCGGAATGAGAATGCTGATGGATTGCTCAGGTCTGCTGG
B1: no binding [1].

B2: ARC845 (ssDNA)
DNA: ATGAGAGTGCTGGTGGATTGCTCAGGTCTGCTGGCTGCTTACTCTCAT
B2: no binding [2].

B3: ARC1348 (mixed)
mixed: GCGUGCAGUGCUUCGCCGTGCGGTGCCUCCGUCACGC
modifications: 2'-OMe/deoxy composite, 3'-idT
B3: no binding [3].

B4: ARC1027 (ssDNA)
DNA: GGCGTGCAGTGCCTATTCTAGGCCGTGCGGTGCCTCCGTCACGCC
modifications: 3'-idT
B4 showed a Kd [4] of 0.8 nM.

B5: DNA1 minimer SEQ 206 (ssDNA)
DNA: CGATCTGACTAGCGGAATGAGAATGCTGGTGGATCG
B5: no binding [1].

B6: ARC1343 (mixed)
mixed: GGCGUGCAGUGCCUUCGGCCGTGCGGTGCCUCCGUCACGCC
modifications: 2'-OMe/deoxy composite with 4 PS as printed in Table 22, 3'-idT
Work on B6 yielded a Kd [5] of 23.9 nM.

B7: ARC1759 (ssDNA)
DNA: GGCGTGCAGTGCCTTCGGCCGTGCGGTGCCTCCGTCACGCC
modifications: single PS between G21 and T22, 3'-idT
For B7, the Kd [6] was 0.7 nM.

B8: ARC1885 (ssDNA)
DNA: GGCGTGCAGTGCCTTCGGCCGTGCGGTGCCTCCGTCACGCC
modifications: 5'-PEG20K-hexylamine; 3'-idT
Binder B8 has an activity [7] of roughly 50 nM.

B9: ARC1214 (ssDNA)
DNA: GGCGTGCAGTGCCTTCGGCCGTGCGGTGCCTCCGTCACGCC
modifications: 2'-OMe at 21; 3'-idT
Work on B9 yielded a Kd [8] of 3 nM.

B10: ARC1212 (ssDNA)
DNA: GGCGTGCAGTGCCTTCGGCCGTGCGGTGCCTCCGTCACGCC
modifications: 2'-OMe at 19; 3'-idT
In the case of B10, the Kd [9] is reported as 2 nM.

B11: ARC1210 (ssDNA)
DNA: GGCGTGCAGTGCCTTCGGCCGTGCGGTGCCTCCGTCACGCC
modifications: 2'-OMe at 17; 3'-idT
B11 gave a Kd [9] of 2 nM.

B12: ARC1198 (ssDNA)
DNA: GGCGUGCAGTGCCTTCGGCCGTGCGGTGCCTCCGTCACGCC
modifications: 2'-OMe U5, 3'-idT
In the case of B12, the Kd [10] is reported as 0.9 nM.

B13: ARC1204 (ssDNA)
DNA: GGCGTGCAGTGCCTTCGGCCGTGCGGTGCCTCCGTCACGCC
modifications: 2'-OMe at 11; 3'-idT
B13 gave a Kd [11] of 2 nM.

B14: ARC1226 (ssDNA)
DNA: GGCGTGCAGTGCCTTCGGCCGTGCGGTGCCTCCGTCACGCC
modifications: 2'-OMe C33, 3'-idT
Binder B14 has a Kd [12] of 12 nM.

B15: ARC1115 (ssDNA)
DNA: GGCGTGCAGTGCCTTCGGCCGTGCGGTGCCTCCGTCACGCC
Work on B15 yielded a Kd [13] of 2 nM.

B16: ARC1229 (ssDNA)
DNA: GGCGTGCAGTGCCTTCGGCCGTGCGGTGCCTCCGTCACGCC
modifications: 2'-OMe at 36; 3'-idT
Work on B16 yielded a Kd [14] of 5 nM.

B17: ARC1199 (ssDNA)
DNA: GGCGTGCAGTGCCTTCGGCCGTGCGGTGCCTCCGTCACGCC
modifications: 2'-OMe G6, 3'-idT
B17 was tested, and the Kd [15] was 19 nM.

B18: ARC1200 (ssDNA)
DNA: GGCGTGCAGTGCCTTCGGCCGTGCGGTGCCTCCGTCACGCC
modifications: 2'-OMe C7, 3'-idT
B18 gave a Kd [12] of 5 nM.

B19: ARC1231 (ssDNA)
DNA: GGCGTGCAGTGCCTTCGGCCGTGCGGTGCCTCCGTCACGCC
modifications: 2'-OMe at 38; 3'-idT
Binder B19 has a Kd [16] of 1 nM.

B20: ARC1239 (ssDNA)
DNA: GGCGTGCAGTGCCTTCGGCCGTGCGGTGCCTCCGTCACGCC
modifications: 2'-OMe at 12,13,19; 3'-idT
B20 showed a Kd [14] of 5 nM.

B21: ARC1205 (ssDNA)
DNA: GGCGTGCAGTGCCTTCGGCCGTGCGGTGCCTCCGTCACGCC
modifications: 2'-OMe at 12; 3'-idT
B21 gave a Kd [16] of 1 nM.

B22: ARC1172 (ssDNA)
DNA: GGCGTGCAGTGCCTTCGGCCGTGCGGTGCCTCCGTCACGCC
modifications: 3'-idT
B22 gave a Kd [17] of 2 nM.

B23: ARC1201 (ssDNA)
DNA: GGCGTGCAGTGCCTTCGGCCGTGCGGTGCCTCCGTCACGCC
modifications: 2'-OMe A8, 3'-idT
Work on B23 yielded a Kd [18] of 0.9 nM.

B24: ARC1338 (mixed)
mixed: GGCGUGCAGTGCCTTCGGCCGTGCGGTGCCTCCGTCACGCC
modifications: 2'-OMe at 1-5 and 37-41, 3'-idT
B24 showed a Kd [5] of 7.4 nM.

B25: ARC1206 (ssDNA)
DNA: GGCGTGCAGTGCCTTCGGCCGTGCGGTGCCTCCGTCACGCC
modifications: 2'-OMe at 13; 3'-idT
B25 gave a Kd [16] of 2 nM.

B26: ARC1233 (ssDNA)
DNA: GGCGTGCAGTGCCTTCGGCCGTGCGGTGCCTCCGTCACGCC
modifications: 2'-OMe at 40; 3'-idT
In the case of B26, the Kd [8] is reported as 2 nM.

B27: ARC1208 (ssDNA)
DNA: GGCGTGCAGTGCCTUCGGCCGTGCGGTGCCTCCGTCACGCC
modifications: 2'-OMe at 15 (mU); 3'-idT
In the case of B27, the Kd [11] is reported as 2 nM.

B28: ARC1347 (mixed)
mixed: GGCGUGCAGUGCUUCGCCGTGCGGTGCCUCCGUCACGCC
modifications: 2'-OMe/deoxy composite, 3'-idT
B28: no binding [3].

B29: ARC1534 (mixed)
mixed: CGGCCGTGCGGTGCCUCCGUCACUUUGUGCAGUGCCG
modifications: 2'-OMe/deoxy composite, single PS, 3'-idT
With B29 the Kd [19] was 62.8 nM.

B30: ARC1779 (mixed)
mixed: GCGUGCAGUGCCUUCGGCCGTGCGGTGCCUCCGUCACGC
modifications: 2'-OMe at 1-4,8-18,20,22,27,28,30,33,34,36-39, rest deoxy; PS between 20 and 21; 5'-PEG20K-hexylamine; 3'-idT
In the case of B30, the activity [7] is reported as roughly 100 nM.

B31: ARC1780 (mixed)
mixed: GCGUGCAGUGCCUUCGGCCGTGCGGTGCCUCCGUCACGC
modifications: 2'-OMe at 1-4,8-18,20,22,27,28,30,33,34,36-39, rest deoxy; PS between 20 and 21; 5'-PEG40K-hexylamine; 3'-idT [2'-OMe at 1-4,8-18,20,22,27,28,30,33,34,36-39, rest deoxy; PS between 20 and 21 (printed S left out); 5'-PEG40K-hexylamine (left out); 3'-idT at 40]
B31 showed an activity [7] of roughly 100 nM.

B32: ARC1535 (mixed)
mixed: CCGGCCGTGCGGTGCCUCCGUCACUUUGUGCAGUGCCGG
modifications: 2'-OMe/deoxy composite, single PS, 3'-idT
With B32 the Kd [20] was 27.1 nM.
